Molecular target: SARS-CoV-2 spike receptor binding domain (RBD) (SARS-CoV-2, UniProt P0DTC2)
Assay: SPR

B1: Fu2 (VHH)
VHH: QVQLVESGGGLVQPGGSLRLSCAASGFTLDDYAIGWFRQAPGKEREGVSFITSSDGSTYYVDSVKGRFTISRDNAKNTVYLQMNSLTPEDTAIYYCAVGPSFSYTGSTYYRSELPWDYDYWGQGTQVTVSS
Kd: 0.118 nM
